Positions of bridges follow the written chain, without caps; N, C: chain ends. Non-standard residues stand in square brackets, D forms with d. Trp(1-Me) = Cn1cc(C[C@H](N)C(=O)O)c2ccccc21; 2Nal = N[C@@H](Cc1ccc2ccccc2c1)C(=O)O; Sar = CNCC(=O)O Bounds are passed on as bounds.

First the molecules themselves.
B1: Compound 76 (peptide)
peptide: Ac-SEFCI[Trp(1-Me)]QDW[Sar]EHRC[Sar]EA-NH2
modifications: disulfide 4-14
SMILES: CC[C@H](C)[C@@H]1NC(=O)[C@@H](NC(=O)[C@H](Cc2ccccc2)NC(=O)[C@H](CCC(=O)O)NC(=O)[C@H](CO)NC(C)=O)CSSC[C@@H](C(=O)N(C)CC(=O)N[C@@H](CCC(=O)O)C(=O)N[C@@H](C)C(N)=O)NC(=O)[C@H](CCCNC(=N)N)NC(=O)[C@H](Cc2c[nH]cn2)NC(=O)[C@H](CCC(=O)O)NC(=O)CN(C)C(=O)[C@H](Cc2c[nH]c3ccccc23)NC(=O)[C@H](CC(=O)O)NC(=O)[C@H](CCC(N)=O)NC(=O)[C@H](Cc2cn(C)c3ccccc23)NC1=O
B2: Compound 71 (peptide)
peptide: Ac-SEYCI[Trp(1-Me)]QDWGEHRC[Sar]EA-NH2
modifications: disulfide 4-14
SMILES: CC[C@H](C)[C@@H]1NC(=O)[C@@H](NC(=O)[C@H](Cc2ccc(O)cc2)NC(=O)[C@H](CCC(=O)O)NC(=O)[C@H](CO)NC(C)=O)CSSC[C@@H](C(=O)N(C)CC(=O)N[C@@H](CCC(=O)O)C(=O)N[C@@H](C)C(N)=O)NC(=O)[C@H](CCCNC(=N)N)NC(=O)[C@H](Cc2c[nH]cn2)NC(=O)[C@H](CCC(=O)O)NC(=O)CNC(=O)[C@H](Cc2c[nH]c3ccccc23)NC(=O)[C@H](CC(=O)O)NC(=O)[C@H](CCC(N)=O)NC(=O)[C@H](Cc2cn(C)c3ccccc23)NC1=O
B3: Compound 78 (peptide)
peptide: Ac-SEFCI[Trp(1-Me)]QDWGEHRC[Sar]E-NH2
modifications: disulfide 4-14
SMILES: CC[C@H](C)[C@@H]1NC(=O)[C@@H](NC(=O)[C@H](Cc2ccccc2)NC(=O)[C@H](CCC(=O)O)NC(=O)[C@H](CO)NC(C)=O)CSSC[C@@H](C(=O)N(C)CC(=O)N[C@@H](CCC(=O)O)C(N)=O)NC(=O)[C@H](CCCNC(=N)N)NC(=O)[C@H](Cc2c[nH]cn2)NC(=O)[C@H](CCC(=O)O)NC(=O)CNC(=O)[C@H](Cc2c[nH]c3ccccc23)NC(=O)[C@H](CC(=O)O)NC(=O)[C@H](CCC(N)=O)NC(=O)[C@H](Cc2cn(C)c3ccccc23)NC1=O
B4: Compound 66 (peptide)
peptide: Ac-YCIWQDWGEHRCTGAES-NH2
modifications: disulfide 2-12
SMILES: CC[C@H](C)[C@@H]1NC(=O)[C@@H](NC(=O)[C@H](Cc2ccc(O)cc2)NC(C)=O)CSSC[C@@H](C(=O)N[C@H](C(=O)NCC(=O)N[C@@H](C)C(=O)N[C@@H](CCC(=O)O)C(=O)N[C@@H](CO)C(N)=O)[C@@H](C)O)NC(=O)[C@H](CCCNC(=N)N)NC(=O)[C@H](Cc2c[nH]cn2)NC(=O)[C@H](CCC(=O)O)NC(=O)CNC(=O)[C@H](Cc2c[nH]c3ccccc23)NC(=O)[C@H](CC(=O)O)NC(=O)[C@H](CCC(N)=O)NC(=O)[C@H](Cc2c[nH]c3ccccc23)NC1=O
B5: Compound 64 (peptide)
peptide: Ac-FCI[2Nal]QDWGEHRCTGAES-NH2
modifications: disulfide 2-12
SMILES: CC[C@H](C)[C@@H]1NC(=O)[C@@H](NC(=O)[C@H](Cc2ccccc2)NC(C)=O)CSSC[C@@H](C(=O)N[C@H](C(=O)NCC(=O)N[C@@H](C)C(=O)N[C@@H](CCC(=O)O)C(=O)N[C@@H](CO)C(N)=O)[C@@H](C)O)NC(=O)[C@H](CCCNC(=N)N)NC(=O)[C@H](Cc2c[nH]cn2)NC(=O)[C@H](CCC(=O)O)NC(=O)CNC(=O)[C@H](Cc2c[nH]c3ccccc23)NC(=O)[C@H](CC(=O)O)NC(=O)[C@H](CCC(N)=O)NC(=O)[C@H](Cc2ccc3ccccc3c2)NC1=O
B6: Compound 74 (peptide)
peptide: Ac-SEFCI[Trp(1-Me)]QDWGEHRC[Sar]GAES-NH2
modifications: disulfide 4-14
SMILES: CC[C@H](C)[C@@H]1NC(=O)[C@@H](NC(=O)[C@H](Cc2ccccc2)NC(=O)[C@H](CCC(=O)O)NC(=O)[C@H](CO)NC(C)=O)CSSC[C@@H](C(=O)N(C)CC(=O)NCC(=O)N[C@@H](C)C(=O)N[C@@H](CCC(=O)O)C(=O)N[C@@H](CO)C(N)=O)NC(=O)[C@H](CCCNC(=N)N)NC(=O)[C@H](Cc2c[nH]cn2)NC(=O)[C@H](CCC(=O)O)NC(=O)CNC(=O)[C@H](Cc2c[nH]c3ccccc23)NC(=O)[C@H](CC(=O)O)NC(=O)[C@H](CCC(N)=O)NC(=O)[C@H](Cc2cn(C)c3ccccc23)NC1=O
B7: Compound 77 (peptide)
peptide: Ac-SEFCI[Trp(1-Me)]QDW[Sar]EHRCTEA-NH2
modifications: disulfide 4-14
SMILES: CC[C@H](C)[C@@H]1NC(=O)[C@@H](NC(=O)[C@H](Cc2ccccc2)NC(=O)[C@H](CCC(=O)O)NC(=O)[C@H](CO)NC(C)=O)CSSC[C@@H](C(=O)N[C@H](C(=O)N[C@@H](CCC(=O)O)C(=O)N[C@@H](C)C(N)=O)[C@@H](C)O)NC(=O)[C@H](CCCNC(=N)N)NC(=O)[C@H](Cc2c[nH]cn2)NC(=O)[C@H](CCC(=O)O)NC(=O)CN(C)C(=O)[C@H](Cc2c[nH]c3ccccc23)NC(=O)[C@H](CC(=O)O)NC(=O)[C@H](CCC(N)=O)NC(=O)[C@H](Cc2cn(C)c3ccccc23)NC1=O
B8: Compound 62 (peptide)
peptide: Ac-YCI[Trp(1-Me)]QDWGEHRCTGAES-NH2
modifications: disulfide 2-12
SMILES: CC[C@H](C)[C@@H]1NC(=O)[C@@H](NC(=O)[C@H](Cc2ccc(O)cc2)NC(C)=O)CSSC[C@@H](C(=O)N[C@H](C(=O)NCC(=O)N[C@@H](C)C(=O)N[C@@H](CCC(=O)O)C(=O)N[C@@H](CO)C(N)=O)[C@@H](C)O)NC(=O)[C@H](CCCNC(=N)N)NC(=O)[C@H](Cc2c[nH]cn2)NC(=O)[C@H](CCC(=O)O)NC(=O)CNC(=O)[C@H](Cc2c[nH]c3ccccc23)NC(=O)[C@H](CC(=O)O)NC(=O)[C@H](CCC(N)=O)NC(=O)[C@H](Cc2cn(C)c3ccccc23)NC1=O
B9: Compound 72 (peptide)
peptide: Ac-FCI[Trp(1-Me)]QDW[Sar]EHRCTGAES-NH2
modifications: disulfide 2-12
SMILES: CC[C@H](C)[C@@H]1NC(=O)[C@@H](NC(=O)[C@H](Cc2ccccc2)NC(C)=O)CSSC[C@@H](C(=O)N[C@H](C(=O)NCC(=O)N[C@@H](C)C(=O)N[C@@H](CCC(=O)O)C(=O)N[C@@H](CO)C(N)=O)[C@@H](C)O)NC(=O)[C@H](CCCNC(=N)N)NC(=O)[C@H](Cc2c[nH]cn2)NC(=O)[C@H](CCC(=O)O)NC(=O)CN(C)C(=O)[C@H](Cc2c[nH]c3ccccc23)NC(=O)[C@H](CC(=O)O)NC(=O)[C@H](CCC(N)=O)NC(=O)[C@H](Cc2cn(C)c3ccccc23)NC1=O
B10: Compound 68 (peptide)
peptide: Ac-YCI[Trp(1-Me)]QDWGEHRCTEAGS-NH2
modifications: disulfide 2-12
SMILES: CC[C@H](C)[C@@H]1NC(=O)[C@@H](NC(=O)[C@H](Cc2ccc(O)cc2)NC(C)=O)CSSC[C@@H](C(=O)N[C@H](C(=O)N[C@@H](CCC(=O)O)C(=O)N[C@@H](C)C(=O)NCC(=O)N[C@@H](CO)C(N)=O)[C@@H](C)O)NC(=O)[C@H](CCCNC(=N)N)NC(=O)[C@H](Cc2c[nH]cn2)NC(=O)[C@H](CCC(=O)O)NC(=O)CNC(=O)[C@H](Cc2c[nH]c3ccccc23)NC(=O)[C@H](CC(=O)O)NC(=O)[C@H](CCC(N)=O)NC(=O)[C@H](Cc2cn(C)c3ccccc23)NC1=O
B11: Compound 70 (peptide)
peptide: Ac-EGSAYCI[Trp(1-Me)]QEWGEHRC[Sar]E-NH2
modifications: disulfide 6-16
SMILES: CC[C@H](C)[C@@H]1NC(=O)[C@@H](NC(=O)[C@H](Cc2ccc(O)cc2)NC(=O)[C@H](C)NC(=O)[C@H](CO)NC(=O)CNC(=O)[C@H](CCC(=O)O)NC(C)=O)CSSC[C@@H](C(=O)N(C)CC(=O)N[C@@H](CCC(=O)O)C(N)=O)NC(=O)[C@H](CCCNC(=N)N)NC(=O)[C@H](Cc2c[nH]cn2)NC(=O)[C@H](CCC(=O)O)NC(=O)CNC(=O)[C@H](Cc2c[nH]c3ccccc23)NC(=O)[C@H](CCC(=O)O)NC(=O)[C@H](CCC(N)=O)NC(=O)[C@H](Cc2cn(C)c3ccccc23)NC1=O
B12: Compound 69 (peptide)
peptide: Ac-YCI[Trp(1-Me)]QDWGEHRCTESGA-NH2
modifications: disulfide 2-12
SMILES: CC[C@H](C)[C@@H]1NC(=O)[C@@H](NC(=O)[C@H](Cc2ccc(O)cc2)NC(C)=O)CSSC[C@@H](C(=O)N[C@H](C(=O)N[C@@H](CCC(=O)O)C(=O)N[C@@H](CO)C(=O)NCC(=O)N[C@@H](C)C(N)=O)[C@@H](C)O)NC(=O)[C@H](CCCNC(=N)N)NC(=O)[C@H](Cc2c[nH]cn2)NC(=O)[C@H](CCC(=O)O)NC(=O)CNC(=O)[C@H](Cc2c[nH]c3ccccc23)NC(=O)[C@H](CC(=O)O)NC(=O)[C@H](CCC(N)=O)NC(=O)[C@H](Cc2cn(C)c3ccccc23)NC1=O
B13: Compound 65 (peptide)
peptide: Ac-YCI[2Nal]QDWGEHRCTGAES-NH2
modifications: disulfide 2-12
SMILES: CC[C@H](C)[C@@H]1NC(=O)[C@@H](NC(=O)[C@H](Cc2ccc(O)cc2)NC(C)=O)CSSC[C@@H](C(=O)N[C@H](C(=O)NCC(=O)N[C@@H](C)C(=O)N[C@@H](CCC(=O)O)C(=O)N[C@@H](CO)C(N)=O)[C@@H](C)O)NC(=O)[C@H](CCCNC(=N)N)NC(=O)[C@H](Cc2c[nH]cn2)NC(=O)[C@H](CCC(=O)O)NC(=O)CNC(=O)[C@H](Cc2c[nH]c3ccccc23)NC(=O)[C@H](CC(=O)O)NC(=O)[C@H](CCC(N)=O)NC(=O)[C@H](Cc2ccc3ccccc3c2)NC1=O

For the experiment, the target named is Human C3 (Complement tech cat #A113c) (human, UniProt P01024 23-1663). The experiment is described as follows: cell-based or functional assay.
Human C3 (Complement tech cat #A113c), sequence (P01024 23-1663 limits assumed): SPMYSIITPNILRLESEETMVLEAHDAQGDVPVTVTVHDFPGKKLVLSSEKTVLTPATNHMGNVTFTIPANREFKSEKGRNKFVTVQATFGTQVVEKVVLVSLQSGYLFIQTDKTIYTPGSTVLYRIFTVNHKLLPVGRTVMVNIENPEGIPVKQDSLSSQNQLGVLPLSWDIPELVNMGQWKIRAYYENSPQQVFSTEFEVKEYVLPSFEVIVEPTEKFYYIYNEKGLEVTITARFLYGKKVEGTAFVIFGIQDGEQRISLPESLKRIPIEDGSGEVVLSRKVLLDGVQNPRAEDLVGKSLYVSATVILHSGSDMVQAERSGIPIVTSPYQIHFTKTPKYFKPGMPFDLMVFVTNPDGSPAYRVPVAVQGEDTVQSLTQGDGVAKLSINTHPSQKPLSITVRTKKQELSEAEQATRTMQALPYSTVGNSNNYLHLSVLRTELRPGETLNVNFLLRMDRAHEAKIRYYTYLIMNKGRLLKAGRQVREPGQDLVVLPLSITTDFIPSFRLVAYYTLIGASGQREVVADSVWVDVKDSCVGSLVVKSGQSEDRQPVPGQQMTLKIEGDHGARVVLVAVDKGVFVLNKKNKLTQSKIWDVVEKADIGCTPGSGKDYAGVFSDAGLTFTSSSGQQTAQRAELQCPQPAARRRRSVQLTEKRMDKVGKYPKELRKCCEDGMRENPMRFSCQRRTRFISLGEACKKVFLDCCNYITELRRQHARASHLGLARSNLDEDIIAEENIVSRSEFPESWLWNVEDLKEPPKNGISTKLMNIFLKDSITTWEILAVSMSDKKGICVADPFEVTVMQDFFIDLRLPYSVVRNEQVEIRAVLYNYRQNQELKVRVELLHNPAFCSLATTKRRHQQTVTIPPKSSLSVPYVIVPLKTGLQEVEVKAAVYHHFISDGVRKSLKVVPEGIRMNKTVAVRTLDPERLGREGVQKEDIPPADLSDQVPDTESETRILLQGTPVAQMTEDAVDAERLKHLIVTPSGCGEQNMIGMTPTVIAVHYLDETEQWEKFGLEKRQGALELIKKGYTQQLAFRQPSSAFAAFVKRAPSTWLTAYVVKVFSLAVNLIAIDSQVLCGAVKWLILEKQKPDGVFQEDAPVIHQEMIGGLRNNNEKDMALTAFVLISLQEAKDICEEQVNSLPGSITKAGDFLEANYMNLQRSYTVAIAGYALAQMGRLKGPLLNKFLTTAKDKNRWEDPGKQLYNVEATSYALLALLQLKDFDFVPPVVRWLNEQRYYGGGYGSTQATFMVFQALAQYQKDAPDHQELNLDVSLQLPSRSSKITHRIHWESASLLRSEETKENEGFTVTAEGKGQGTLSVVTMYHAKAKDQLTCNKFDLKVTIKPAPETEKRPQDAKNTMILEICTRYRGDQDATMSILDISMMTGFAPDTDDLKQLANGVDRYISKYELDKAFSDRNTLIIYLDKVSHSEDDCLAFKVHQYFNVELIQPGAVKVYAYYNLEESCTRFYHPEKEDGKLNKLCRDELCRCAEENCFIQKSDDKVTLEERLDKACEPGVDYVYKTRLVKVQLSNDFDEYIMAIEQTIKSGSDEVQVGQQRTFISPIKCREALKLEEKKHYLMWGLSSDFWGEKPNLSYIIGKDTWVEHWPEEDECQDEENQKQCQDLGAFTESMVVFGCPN
Take B1: the “inhibition of hemolysis IC50” value was below 100 nM.

With B2, the “inhibition of hemolysis IC50” value was below 100 nM.

With B3, the “inhibition of hemolysis IC50” value was below 100 nM.

Turning to B4, the “inhibition of hemolysis IC50” value was below 100 nM.

Regarding B5, the “inhibition of hemolysis IC50” value was below 100 nM.

With B6, the “inhibition of hemolysis IC50” value was below 100 nM.

B7: the “inhibition of hemolysis IC50” value was below 100 nM.

Regarding B8, the “inhibition of hemolysis IC50” value is below 100 nM.

For B9, the “inhibition of hemolysis IC50” value is below 100 nM.

On to B10, for which the “inhibition of hemolysis IC50” value is below 100 nM.

As for B11, the “inhibition of hemolysis IC50” value is below 100 nM.

B12: the “inhibition of hemolysis IC50” value is below 100 nM.

Regarding B13, the “inhibition of hemolysis IC50” value is below 100 nM.
